The subject of data set [1] is PSMA-expressing LNCaP cancer xenografts.
A short description of data set [2]: in vivo. As to conditions: male, NODSCID 1L2RγKO, mouse, iv, total radioactivity; for excreta dose per gram or mL at 1 h: Urine uptake.

As for `O=C(O)CCC[C@H](NC(=O)N[C@@H](CCCCNC(=O)[C@H](Cc1c2ccccc2cc2ccccc12)NC(=O)c1ccc(NC(=O)CN2CCN(CC(=O)O)CCN(CC(=O)O)CCN(CC(=O)O)CC2)cc1)C(=O)O)C(=O)O` [68Ga-HTK04041, metal not drawn], the “Blood: Salivary ratio” value in data set [1] (mouse, in vivo) turned out to be 3.96 ± 0.51. Also, the “Tumor: Blood ratio” value in data set [1] (mouse, in vivo) was found to be 12.4 ± 3.62. The “Tumor: Kidney ratio” value in data set [1] (mouse, in vivo) worked out at 2.06 ± 0.89. Besides, in data set [1] (mouse, in vivo), the “Tumor: Muscle ratio” value was 95.1 ± 33.7. Also, the “Tumor: Salivary ratio” value in data set [1] (mouse, in vivo) amounted to 48.2 ± 12.2. The tissue uptake at 1 h in data set [2] (Adrenal glands uptake) worked out at 0.31 ± 0.05 %ID/g; in data set [2] (Blood uptake), 1 ± 0.09 %ID/g; in data set [2] (Bone uptake) it was 0.13 ± 0.02 %ID/g; in data set [2] (Brain uptake), 0.02 %ID/g; in data set [2] (Fat uptake), 0.11 ± 0.03 %ID/g; in data set [2] (Heart uptake) it was 0.3 ± 0.03 %ID/g. Also, the tissue uptake at 1 h amounted to 0.19 ± 0.04 %ID/g in data set [2] (Intestine uptake); 6.82 ± 2.93 %ID/g in data set [2] (Kidneys uptake); 0.11 ± 0.05 %ID/g in data set [2] (Lacrimal uptake); 0.37 ± 0.08 %ID/g in data set [2] (Liver uptake); 0.82 ± 0.08 %ID/g in data set [2] (Lungs uptake); 0.13 ± 0.03 %ID/g in data set [2] (Muscle uptake). In addition, the tissue uptake at 1 h in data set [2] (Pancreas uptake) is 0.15 ± 0.02 %ID/g; in data set [2] (Salivary uptake), 0.26 ± 0.04 %ID/g; in data set [2] (Seminal uptake), 1.68 ± 3.44 %ID/g; in data set [2] (Spleen uptake) it was 0.4 ± 0.11 %ID/g; in data set [2] (Stomach uptake) it was 0.07 ± 0.03 %ID/g; in data set [2] (Tail uptake), 0.57 ± 0.05 %ID/g. In addition, the results for the tissue uptake at 1 h in data set [2] (Testes uptake), in data set [2] (Thyroid uptake) and in data set [2] (Tumor uptake) were 0.31 ± 0.05 %ID/g, 0.29 ± 0.04 %ID/g and 12.2 ± 3.15 %ID/g, respectively. For the same compound, in data set [2], the excreta dose per gram or mL at 1 h was 396 ± 92.3 %ID/g.

On to `O=C(O)CCC[C@H](NC(=O)N[C@@H](CCCCNC(=O)[C@H](Cc1c2ccccc2cc2ccccc12)NC(=O)Cc1ccc(CNC(=O)CN2CCN(CC(=O)O)CCN(CC(=O)O)CCN(CC(=O)O)CC2)cc1)C(=O)O)C(=O)O` [68Ga-HTK04036, metal not drawn], for which, in data set [1] (mouse, in vivo), the “Blood: Salivary ratio” value is 3.68 ± 0.41. For the same compound, the “Tumor: Blood ratio” value in data set [1] (mouse, in vivo) is given as 21.0 ± 8.58. Moreover, the “Tumor: Kidney ratio” value in data set [1] (mouse, in vivo) came out at 3.02 ± 1.44. Moreover, the “Tumor: Muscle ratio” value in data set [1] (mouse, in vivo) is on record as 139 ± 62.4. The “Tumor: Salivary ratio” value in data set [1] (mouse, in vivo) was 75.1 ± 28.2. Further, the tissue uptake at 1 h in data set [2] (Adrenal glands uptake) came to 0.3 ± 0.16 %ID/g; in data set [2] (Blood uptake) it was 0.69 ± 0.35 %ID/g; in data set [2] (Bone uptake), 0.1 ± 0.03 %ID/g; in data set [2] (Brain uptake), 0.02 ± 0.01 %ID/g; in data set [2] (Fat uptake), 0.09 ± 0.05 %ID/g; in data set [2] (Heart uptake), 0.22 ± 0.12 %ID/g. The tissue uptake at 1 h came out at 0.41 ± 0.23 %ID/g in data set [2] (Intestine uptake); 5.82 ± 5 %ID/g in data set [2] (Kidneys uptake); 0.06 ± 0.03 %ID/g in data set [2] (Lacrimal uptake); 0.48 ± 0.67 %ID/g in data set [2] (Liver uptake); 0.55 ± 0.26 %ID/g in data set [2] (Lungs uptake); 0.11 ± 0.06 %ID/g in data set [2] (Muscle uptake). Also, the tissue uptake at 1 h was 0.13 ± 0.07 %ID/g in data set [2] (Pancreas uptake); 0.18 ± 0.08 %ID/g in data set [2] (Salivary uptake); 2.08 ± 3.09 %ID/g in data set [2] (Seminal uptake); 0.27 ± 0.13 %ID/g in data set [2] (Spleen uptake); 0.12 ± 0.11 %ID/g in data set [2] (Stomach uptake); 0.42 ± 0.18 %ID/g in data set [2] (Tail uptake). Moreover, the tissue uptake at 1 h is 0.25 ± 0.14 %ID/g in data set [2] (Testes uptake), 0.22 ± 0.12 %ID/g in data set [2] (Thyroid uptake) and 12.1 ± 2.15 %ID/g in data set [2] (Tumor uptake). Besides, the excreta dose per gram or mL at 1 h in data set [2] amounted to 422 ± 163 %ID/g.

As to `O=C(O)CSC[C@H](NC(=O)N[C@@H](CCCCNC(=O)[C@H](Cc1c2ccccc2cc2ccccc12)NC(=O)[C@H]1CC[C@H](CNC(=O)CN2CCN(CC(=O)O)CCN(CC(=O)O)CCN(CC(=O)O)CC2)CC1)C(=O)O)C(=O)O` [68Ga-HTK03177, metal not drawn], the “Blood: Salivary ratio” value in data set [1] (mouse, in vivo) was determined as 3.14 ± 0.19. Further, the “Tumor: Blood ratio” value in data set [1] (mouse, in vivo) was 36.1 ± 12.5. Also, the “Tumor: Kidney ratio” value in data set [1] (mouse, in vivo) is recorded as 3.25 ± 1.16. Moreover, the “Tumor: Muscle ratio” value in data set [1] (mouse, in vivo) turned out to be 220 ± 135. In addition, the “Tumor: Salivary ratio” value in data set [1] (mouse, in vivo) stood at 112 ± 33.1. Further, the tissue uptake at 1 h was 0.46 ± 0.17 %ID/g in data set [2] (Adrenal glands uptake); 0.7 ± 0.06 %ID/g in data set [2] (Blood uptake); 0.1 ± 0.03 %ID/g in data set [2] (Bone uptake); 0.02 %ID/g in data set [2] (Brain uptake); 0.09 ± 0.04 %ID/g in data set [2] (Fat uptake); 0.21 ± 0.01 %ID/g in data set [2] (Heart uptake). For the same compound, the tissue uptake at 1 h in data set [2] (Intestine uptake) is 0.21 ± 0.02 %ID/g; in data set [2] (Kidneys uptake), 7.76 ± 1 %ID/g; in data set [2] (Lacrimal uptake), 0.12 ± 0.06 %ID/g; in data set [2] (Liver uptake), 0.33 ± 0.2 %ID/g; in data set [2] (Lungs uptake), 0.61 ± 0.08 %ID/g; in data set [2] (Muscle uptake), 0.18 ± 0.18 %ID/g. Also, the tissue uptake at 1 h came out at 0.14 ± 0.01 %ID/g in data set [2] (Pancreas uptake); 0.22 ± 0.02 %ID/g in data set [2] (Salivary uptake); 0.28 ± 0.38 %ID/g in data set [2] (Seminal uptake); 0.42 ± 0.15 %ID/g in data set [2] (Spleen uptake); 0.15 ± 0.09 %ID/g in data set [2] (Stomach uptake); 0.74 ± 0.12 %ID/g in data set [2] (Tail uptake). The results for the tissue uptake at 1 h in data set [2] (Testes uptake), in data set [2] (Thyroid uptake) and in data set [2] (Tumor uptake) were 0.25 ± 0.07 %ID/g, 0.23 ± 0.01 %ID/g and 24.7 ± 6.85 %ID/g, respectively. The excreta dose per gram or mL at 1 h in data set [2] stood at 400 ± 262 %ID/g.

In the case of `O=C(O)CN1CCN(CC(=O)O)CCN(CC(=O)NC[C@H]2CC[C@H](C(=O)N[C@@H](Cc3c4ccccc4cc4ccccc34)C(=O)NCCCC[C@H](NC(=O)N[C@@H](C[C@H](F)C(=O)O)C(=O)O)C(=O)O)CC2)CCN(CC(=O)O)CC1` [HTK04040], in data set [1] (concluded from biodistribution), the “binding to PSMA (in words)” value is recorded as “bind well to PSMA”. Further, the “kidney and salivary gland uptake (in words)” value in data set [1] (mouse, in vivo) is “much less kidney and salivary gland uptake”. For the same compound, the tissue uptake at 1 h in data set [2] (kidney uptake) amounted to 76 %ID/g.

For `O=C(O)COC[C@H](NC(=O)N[C@@H](CCCCNC(=O)[C@H](Cc1c2ccccc2cc2ccccc12)NC(=O)[C@H]1CC[C@H](CNC(=O)CN2CCN(CC(=O)O)CCN(CC(=O)O)CCN(CC(=O)O)CC2)CC1)C(=O)O)C(=O)O` [68Ga-HTK03187, metal not drawn], the “Blood: Salivary ratio” value in data set [1] (mouse, in vivo) was found to be 4.27 ± 0.74. Further, the “Tumor: Blood ratio” value in data set [1] (mouse, in vivo) is 32.2 ± 8.53. For the same compound, the “Tumor: Kidney ratio” value in data set [1] (mouse, in vivo) is given as 7.67 ± 2.10. The “Tumor: Muscle ratio” value in data set [1] (mouse, in vivo) was 249 ± 61.2. The “Tumor: Salivary ratio” value in data set [1] (mouse, in vivo) is given as 133 ± 14.0. The tissue uptake at 1 h was 0.26 ± 0.06 %ID/g in data set [2] (Adrenal glands uptake); 0.67 ± 0.1 %ID/g in data set [2] (Blood uptake); 0.13 ± 0.03 %ID/g in data set [2] (Bone uptake); 0.02 %ID/g in data set [2] (Brain uptake); 0.07 ± 0.02 %ID/g in data set [2] (Fat uptake); 0.19 ± 0.04 %ID/g in data set [2] (Heart uptake). In addition, the tissue uptake at 1 h in data set [2] (Intestine uptake) came to 0.23 ± 0.05 %ID/g; in data set [2] (Kidneys uptake), 2.83 ± 0.45 %ID/g; in data set [2] (Lacrimal uptake) it was 0.09 ± 0.03 %ID/g; in data set [2] (Liver uptake), 0.21 ± 0.05 %ID/g; in data set [2] (Lungs uptake), 0.52 ± 0.09 %ID/g; in data set [2] (Muscle uptake) it was 0.09 ± 0.01 %ID/g. For the same compound, the tissue uptake at 1 h was 0.12 ± 0.02 %ID/g in data set [2] (Pancreas uptake); 0.16 ± 0.02 %ID/g in data set [2] (Salivary uptake); 0.65 ± 0.8 %ID/g in data set [2] (Seminal uptake); 0.17 ± 0.02 %ID/g in data set [2] (Spleen uptake); 0.08 ± 0.05 %ID/g in data set [2] (Stomach uptake); 0.46 ± 0.1 %ID/g in data set [2] (Tail uptake). For the same compound, the tissue uptake at 1 h amounted to 0.15 ± 0.03 %ID/g in data set [2] (Testes uptake), 0.18 ± 0.02 %ID/g in data set [2] (Thyroid uptake) and 21.1 ± 3.62 %ID/g in data set [2] (Tumor uptake). In data set [2], the excreta dose per gram or mL at 1 h amounted to 444 ± 192 %ID/g.
